Reference: doi:10.1101/2025.11.03.686288

Tests used:
[1] = molecular target: C-terminal His6-tagged PEX19 full-length (T. brucei); assay: AlphaScreen or HTRF
[2] = molecular target: TbPEX38 (65-134) (T. brucei); assay: ITC
[3] = molecular target: N-terminal GST-tagged PEX38 full-length (T. brucei); assay: AlphaScreen or HTRF

## untagged PEX38 full-length (natural protein)
[1]
  IC50: 950 nM

## GST-PEX3Δ1-44 (domain or fragment)
[1]
  fold higher affinity for PEX19 than PEX38: 30 fold

## TbPEX19 (1-50-SGGY) (domain or fragment)
[2]
  Kd: 3000 nM

## TbPEX38 (65-134) (domain or fragment)
[1]
  IC50: 446 nM

## C-terminal His6-tagged PEX19 N50 (domain or fragment)
[3]
  fold weaker interaction with PEX38^FL than PEX19^FL (AlphaScreen signal): 10 fold
